# Results published in publication PMC11352979, “The mycobacterium lipid transporter MmpL3 is dimeric in detergent solution, SMALPs and reconstituted nanodiscs†” (RSC Chemical Biology, 2024).
# Molecular target: the molecule itself
# Test: SEC + native gel or EMSA
protein,measurement,value
"C-terminally truncated Mycobacterium tuberculosis MmpL3 (ΔC Mtb-MmpL3, aa 1–753) (domain or fragment, also called Mtb-MmpL3 ΔC; Mtb MmpL3 ΔC) MFAWWGRTVYRYRFIVIGVMVALCLGGGVFGLSLGKHVTQSGFYDDGSQSVQASVLGDQVYGRDRSGHIVAIFQAPAGKTVDDPAWSKKVVDELNRFQQDHPDQVLGWAGYLRASQATGMATADKKYTFVSIPLKGDDDDTILNNYKAIAPDLQRLDGGTVKLAGLQPVAEALTGTIATDQRRMEVLALPLVAVVLFFVFGGVIAAGLPVMVGGLCIAGALGIMRFLAIFGPVHYFAQPVVSLIGLGIAIDYGLFIVSRFREEIAEGYDTETAVRRTVITAGRTVTFSAVLIVASAIGLLLFPQGFLKSLTYATIASVMLSAILSITVLPACLGILGKHVDALGVRTLFRVPFLANWKISAAYLNWLADRLQRTKTREEVEAGFWGKLVNRVMKRPVLFAAPIVIIMILLIIPVGKLSLGGISEKYLPPTNSVRQAQEEFDKLFPGYRTNPLTLVIQTSNHQPVTDAQIADIRSKAMAIGGFIEPDNDPANMWQERAYAVGASKDPSVRVLQNGLINPADASKKLTELRAITPPKGITVLVGGTPALELDSIHGLFAKMPLMVVILLTTTIVLMFLAFGSVVLPIKATLMSALTLGSTMGILTWIFVDGHFSKWLNFTPTPLTAPVIGLIIALVFGLSTDYEVFLVSRMVEARERGMSTQEAIRIGTAATGRIITAAALIVAVVAGAFVFSDLVMMKYLAFGLMAALLLDATVVRMFLVPSVMKLLGDDCWWAPRWARRLQTRIGLGEIHLPD",binding result,binds
